Numbering of substitutions follows the chain as printed.

For test [1], the target named is T1, RSV postfusion F (postF), subtype B (respiratory syncytial virus subtype B).
T1 construct: also called Postfusion subtype B
The test can be described thus: BLI, IgG.

The target of test [2] is T2, RSV prefusion F (preF), subtype B (respiratory syncytial virus subtype B).
T2 construct: also called Prefusion subtype B
Nature of the test: BLI, IgG.

For test [3], the target named is RSV F on RSV subtype A virus (RSV-A2) (Respiratory Syncytial Virus, subtype A, …, UniProt P03420 26-574). Nature of the test: cell-based or functional assay.
Test [4] concerns the target RSV prefusion F (preF), subtype B (respiratory syncytial virus, subtype B). Nature of the test: BLI, IgG.
For test [5], the target named is T3, RSV postfusion F (postF), subtype B (respiratory syncytial virus, subtype B).
T3 construct: also called F ΔFP; Postfusion subtype B
The test can be described thus: BLI, IgG.

The target of test [6] is RSV prefusion F (preF), subtype A (respiratory syncytial virus, subtype A, UniProt P03420 26-513). Nature of the test: BLI, IgG.
The target of test [7] is T4, RSV postfusion F (postF), subtype A (respiratory syncytial virus, subtype A, UniProt P03420 26-513).
T4 construct: also called F ΔFP; Postfusion subtype A
Nature of the test: BLI, IgG.

Test [8] has as its target T5, RSV postfusion F (postF), subtype A (respiratory syncytial virus subtype A, UniProt P03420 26-513).
T5 construct: also called Postfusion subtype A; F deltaFP
The test can be described thus: BLI.

B1: ADI-19503 (antibody, V domains shown)
VH: QVQLVQSGAEVKKPGASVKVSCKASGYTFTSYYMHWVRQAPGQGLEWMGIINPSGGSTSYAQKFQGRVTMTRDTSTSTVYMELSSLRSEDTAVYYCARDSLVNCSGGSCPGGPDYWGQGTLVTVSS
VL: SYVLTQPPSVSVSPGQTARITCSGDALPKKYAYWYQQKSGQAPVLVIYEDSKRPSGIPERFSGSSSGTMATLTISGAQVEDEADYYCYSTDSSGNHRVFGGGTKLTVL
notes: full-length IgG
With B1, the Kd in test [1] came out at 11.6 nM. That is a double-digit nanomolar value.

B2: ADI-14369 (antibody, V domains shown)
VH: QVQLVQSGAEVKKPGSSVKVSCKASGGTFSSNAISWVRQAPGQGLEWMGGIIPIFATANYAQNFQDRVTITADESTGTAYMELSSLRYEDTAVYYCAKSAIHSGYHGPARSGFYQNGMDVWGQGTTVTVSS
VL: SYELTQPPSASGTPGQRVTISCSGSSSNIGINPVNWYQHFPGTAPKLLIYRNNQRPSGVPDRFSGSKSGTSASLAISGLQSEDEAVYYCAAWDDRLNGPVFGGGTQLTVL
notes: full-length IgG; also called Ab 37
Regarding B2, the results for the Kd in test [2] and in test [1] were 3.38 nM and 0.9 nM, respectively.

B3: ADI-41594 (antibody, V domains shown)
VH: EVQLVESGGGLVKPGGSLRLSCAASGFSFSSYYMNWVRQAPGKGLEWVSSISPSSSYTNYADSVKGRFTISRDNAKDSLYLQMNSLRAEDTAVYYCARDGLLGITIFGVVQDYWGQGTLVTVSS
VL: QSVVTQPPSVSGAPGQRVTISCTGSSSNIGAGYDVHWYQQLPGTAPKLLIYGNTNRPSGVPDRFSASKSGTSASLAITGLQAEDEADYYCQSYDSSLSVVFGGGTKLTVL
Consider B3, for which, in test [3], the “Neutralization - RSV A2 IC50 (pM)” value was determined as 208 pM and the “neut IC50 (ug/ml) subtype A (wright)” value turned out to be 0.041 µg/mL.

B4: ADI-36674 (antibody, V domains shown)
VH: EVQLLESGGGLVKPGGSLRLSCAASGFKFRSYSMNWVRQAPGKGLEWVSSISSSSSYVDYAGSLKGRFTISRDNAENSLYLQMNSLRAEDTAMYYCARAGSVPVAGTYNDYWGQGTLVTVSS
VL: QSVLTQPPSVSGAPGQRVTISCTGSSSNIGAGYDVHWYQHLPGTAPKLLIHGNNNRPAGVPDRFSGSKSGTSASLVITGLQADDEADYYCQSYDRSLSVLFGGGTKVTVL
For B4, in test [3], the “Neutralization - RSV A2 IC50 (pM)” value came to 190 pM and the “neut IC50 (ug/ml) subtype A (wright)” value stood at 0.014 µg/mL.

B5: ADI-21062 (antibody, V domains shown)
VH: EVQLLESGGGLVKPGGSLRLSCAASGFTFSDYDMIWVRQAPGKGLEWVSSISRGSDYIYYADSLKGRFTISRDNARNSVTLQMNSLRAGDTALYFCARAELLDSGGYYLYYFDHWGQGTLVTVSS
VL: DIRMTQSPSSLSASVGDRVTITCRASQIIASYVNWYQKKPGKAPKVLIYAASRLQNGVPSRFSGSGSGTEFTLTISSLQPEDFATYYCQQSYSTSFTFGQGTKVDIK
notes: also called Ab 310
As to B5, the Kd in test [4] was 0.827 nM; in test [5] it was 0.417 nM; in test [6], 1.24 nM; in test [7], 0.236 nM.

B6: ADI-19511 (antibody, V domains shown)
VH: QITLKESGPTLVKPTQTLTLTCTFSGFSLSTSGVGVGWIRQPPGKALEWLALIYWDDDKRYSPSLKSRLTITKDTSKNQVVLTMTNMDPVDTATYYCAHSVYYDFWSGYYVPNYFDYWGQGTLVTVSS
VL: DIQMTQSPSSLSASVGDRVTITCRASQGIRNDLGWYQQKPGKAPKRLIYAASSLQSGVPSRFSGSGSGTEFTLTISSLQPEDFATYYCLQHNSYPLTFGGGTKVEIK
notes: full-length IgG
Consider B6, for which the binding result in test [8] was “no binding”. This molecule showed a Kd in test [1] of 15.3 nM.

B7: ADI-41344 (antibody, V domains shown)
VH: EVQLVESGGGLVKPGGSLRLSCAASGSSFSSYYMNWVRQAPGKGLEWVSSISSSSTYIDYADSVKGRFTISRDNAKNSLFLQMNSLRAEDTAVYYCARVSSPMIRGYYLDYWGQGTLVTVSS
VL: QPVLTQPPSVSGAPGQRVTISCTGSSSNIGAGYDVHWYQQLPGTAPKLVIHGNSNRPSGVPDRFSGSKSGTSASLAITGLQGEDEADYYCQSYDSSLSGSVFGGGTKLTVL
B7: in test [3], the “Neutralization - RSV A2 IC50 (pM)” value was 229 pM and the “neut IC50 (ug/ml) subtype A (wright)” value is 0.064 µg/mL.

B8: ADI-19478 (antibody, V domains shown)
VH: QVQLVESGPGVVKPSETLSLTCTVSGGPVSSRSYYWGWIRQPPGKGLEWIGSIYYSGSTYYNTSLKSRVTISVDTSKNQFSLKLSSVTAADTAVYYCAKLQYSTSGFDYWGQGTLVTVSS
VL: QPVLTQPPSVSEAPRQRVTISCSGSSSNIGNNAVSWYQQLPGKAPKLLIYYDDLVPSGVSDRFSGSKSGTSASLAISGLQSEDEADYYCAAWDDSLNGVVFGGGTKLTVL
notes: full-length IgG; also called Ab 180
B8 registered a Kd in test [1] of 0.713 nM. This lies in the sub-nanomolar range.

B9: ADI-41249 (antibody, V domains shown)
VH: QVQLVQSGAEVKKPGESLKISCQVSRDTSTTYWIGWVRQMPGKGLEWMGIIFPGDSDTRYSPSFQGQVTISADKSIMTAYLQLTSLKASDTAMYYCATQALRGAFDIWGQGTMVTVSS
VL: DIRLTQSPSSLSASVGDRVTITCQASQDISNYLNWYQQKPGKAPKLLIYDASYLETGVPSRFSGSGSGTDFTFTISSLQPEDFATYYCQQYDDLLFTFGPGTKLEIK
In the case of B9, in test [3], the “Neutralization - RSV A2 IC50 (pM)” value stood at 51.7 pM and the “neut IC50 (ug/ml) subtype A (wright)” value amounted to 0.006 µg/mL.

B10: ADI-25573 (antibody, V domains shown)
VH: EVQLVESGAEVKKPGASVKVSCKASGYTFTSYYMHWVRQAPGQGLEWMGIINPSGGSTSYAQKFQGRVTMTRDTSTSTVYMELSSLRSEDTAVYYCARGPYDSSGYCDYWGQGTLVTVSS
VL: SYELMQPPSVSVAPGKTARITCGGNNIGSKSVHWYQQKPGQAPVLVVYDDSDRPSGTPERFSGSNSGNTATLTISRVEAGDEADYYCQVWDSSSDQVFGGGTKVTVL
notes: full-length IgG
For B10, the binding result in test [8] is on record as “no binding”. The Kd in test [1] was 48.6 nM.

B11: ADI-41563 (antibody, V domains shown)
VH: QVQLVESGPGLVKPSETLSLTCTVSDDSITNNFWTWIRQPPGKGLEWIGYIYYSGSTNYNPSLKSRITMSVDLSKNQFSLKLSSVTAADTAVYYCARLTSGGVDYWGQGTLVTVSS
VL: QSVLTQPPSLSGAPGQRVTISCTGSSSNIGADYHVHWYQQLPGTAPKLLIYQNTNRPSGVPDRFSASKSGTSVSLAITGLQAEDEADYYCQSYDSSLSAWVFGGGTKLTVL
On to B11, for which, in test [3], the “Neutralization - RSV A2 IC50 (pM)” value was found to be 139 pM and the “neut IC50 (ug/ml) subtype A (wright)” value was 0.032 µg/mL.

B12: ADI-24793 (antibody, V domains shown)
VH: QVQLVQSGAEVKKPGESLKISCKGSGYSFTSYWIGWVRQMPGKGLEWMGIIYPGDSDTRYSPSFQGQVTISADKSISTAYLQWSSLKASDTAMFYCVMGSYSYYFDYWGQGTLVTVSS
VL: NFMLTQPHSVSESPGKTVTISCTRSSGSIASNYVQWYQQRPGSAPTTVIYEDNLRPSGVPDRFSGSIDSSSNSASLTISGLKTEDEADYYCQSYDSSNQVFGGGTKLTVL
notes: full-length IgG
Turning to B12, the binding result in test [8] is “no binding”. In test [1], this molecule came in with a Kd of 26.8 nM.

B13: ADI-25576 (antibody, V domains shown)
VH: EVQLVESGGGLVQPGGSLRLSCAASGFTFSSYWMHWVRQAPGKGLVWVSRINSDGSSTSYADSVKGRFTISRDNAKNTLYLQMNSLRAEDTAVYYCARGLYNWNHDYWGQGTLVTVSS
VL: B12 VL with A44S, L54Q, Q99V, L107V
notes: full-length IgG; also called Ab 460
B13 came in with a Kd in test [1] of 23.9 nM. That is a double-digit nanomolar value.

B14: ADI-19497 (antibody, V domains shown)
VH: QVQLVQSGAEVKKPGASVKVSCKASGYTFTSYYMHWVRQAPGQGLEWMGIINPSGGSTSYAQKFQGRVTMTRDTSTSTVYMELSSLRSEDTAVYYCSRGYSYGYDYWGQGTLVTVSS
VL: B12 VL with A44S, L54Q, Q99W
notes: full-length IgG
For the molecule B14, binding in test [1] was characterised by a dissociation constant (Kd) of 13.4 nM.

B15: ADI-41232 (antibody, V domains shown)
VH: QVQLVQSGAEVKKPGASVKVSCKASGYTFTHYGISWVRQAPGQGLEWMAWISAYNGNTNYAQKLQDRVTVTTDTSTSTAYMELRSLRSDDTALYYCARDSMGGTTLFDYWGQGTLVTVSS
VL: DIVLTQTPLSLPVTLGQPASISCRSSQSLVYSDGNTYLNWFQQRPGQSPRRLIYKVSNRDSGVPDRFTGSGSGTDFTLKISRVEAEDVGVYYCMQGTHWPPMYTFGQGTKLEIK
In the case of B15, in test [3], the “Neutralization - RSV A2 IC50 (pM)” value is 104 pM and the “neut IC50 (ug/ml) subtype A (wright)” value amounted to 0.025 µg/mL.

B16: ADI-36670 (antibody, V domains shown)
VH: QVQLVQSGAEVKKPGSSVKVSCKASGGTFSTYTINWVRQAPGQGLEWMGRITPSLGVPLSAQKFQGRITISADKSTTTAYMELSSLGSEDTAVYYCASLNYYDTTDYYLGYSDSWGQGTLVTVSS
VL: DIVLTQTPATLSVSPGERATLSCRASHSVSNNLAWYQQKPGQAPRLLIYSASTRATGIPARFSGRGSGTEFTLTISSLQPEDFAVYYCQQYNNWPPEYTFGQGTKVDIK
With B16, in test [3], the “Neutralization - RSV A2 IC50 (pM)” value worked out at 141 pM and the “neut IC50 (ug/ml) subtype A (wright)” value came out at 0.008 µg/mL.

B17: ADI-41222 (antibody, V domains shown)
VH: QVTLKESGGGVVQPGRSQRLSCTASGFNFHNYAMHWVRQAPGKGLEWVAVISYDGSNKNFADSVKGRFTISRDNSKNTLNLQMNNLRAEDTAVYYCVRDIVRGSPLFDYWGQGTLVTVSS
VL: QPVLTQPPSLSVAPGQTAWITCGGNNIGSKIVHWYQQKPGQAPVVVVYDDDDRPSGIPERFSGSNSGNTATLTIRRVEVGDEADYYCQVWDRSSDNYVFGTGTKVSVL
For the molecule B17, in test [3], the “Neutralization - RSV A2 IC50 (pM)” value came out at 39.9 pM and the “neut IC50 (ug/ml) subtype A (wright)” value was 0.016 µg/mL.

B18: ADI-14356 (antibody, V domains shown)
VH: QVQLQESGAGLLKPSETLSLTCAVYGGSFSGYYWSWIRQPPGKGLEWIGEINHSGSTNYNPSLKSRVTISVDTSKNQFSLKLSSVTAADTAVYYCARDQRIVVVGAATEPYYYYYGMDVWGQGTTVTVSS
VL: QPVLTQPPSVSVSPGQTARITCSGDALPKQYAYWYQQKPGQAPVLVIYKDSERPSGIPERFSGSSSGTTVTLTISGVQAEDEADYYCQSADSSGTYRVFGGGTKLTVL
notes: full-length IgG; also called Ab 24
Take B18: the Kd in test [2] is 13 nM; in test [1], 4.98 nM.

For the origin of these results see patent US20260258115A1 (MAPP BIOPHARMACEUTICAL, published 2026).
